# From the nanobody polyreactivity screen of Harvey et al. (2022)
# Experiment: yeast display, Sf9 membrane polyspecificity reagent, FACS + sequencing; frameworks hold sequencing errors
# Summary of the method: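 Genes from sorted yeast were amplified by colony PCR, read by MiSeq 2 × 250 sequencing and filtered on CDR length. These cells carried a synthetic nanobody library in Saccharomyces cerevisiae BJ5465 and were sorted by FACS into low and high (top ~1%) gates on anti-HA and streptavidin fluorescence. Polyreactivity is labelled according to the gate of origin.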
row,Sequence,polyreactivity (PSR sort gate)
1,QVQRVESGGGLVQAGGSLRLSCAASGIIFDRYAMGWYRPAPGKERELVAAISSSGGSTYYADSVKGRFTISRDNAKNTVYLQMISLKPEATAVYYCNARHRQWARGYWGQGTQVTVSS,high polyreactivity
2,QVQRVESGGGLVQAGGSLRLSCAASGITFRGYAMGWYRQAPGKERELVAAINSRGGSTYYADSVKGRFTISRDNAKNTVYLQMNSLKPEDTAVYYCATRSFGRMDYWGQGTQVTVSS,high polyreactivity
3,QVQRVESGGGLVQAGGSLRLSCAASGLIFVVYAMGWYRQAPGKERELVADISSGGRTSYADSVKGRFTISRDNAKNTVYLQMNSLKPEDTAVYYCNAYPVFNQYYGWRYDYWGQGTQVTVSS,low polyreactivity
4,QVQRVESGGGLVQAGGSLRLSCAASGNTFWLNAMGWYRQAPGKERELVAAITYTDGSTYADSVKGRFTISRDNAKNTVYLQMNSLKPEDTAVYYCAARYQWDWRDYYYWGQGTQVTVSS,low polyreactivity
5,QVQRVESGGGLVQAGGSLRLSCAASGRIFYFNAMGWYRQAPGKEWELVAVINSSGSTDYADSVKGRFTISRDNAKNTVYLQMNSLKPEDTAVYYCAAEVTPSGYGYWGQGTQVTVSS,low polyreactivity
6,QVQRVESGGGLVQAGGSLRLSCAASGRILYWYAMGWYRQAPGKERELVAGIDWSGGSTYYADSVKGRFTISRDKAKTTVYLQMNSLKPEDTAVYYCNAAQNRGRGSHRGESTYYYSGQGTQVTVSS,low polyreactivity
7,QVQRVESGGGLVQAGGSLRLSCAASGRTFYGYAMGWYRQAPGKDRELVASISWSTGSTHYADSVKGRFTISRVNAKNTVYVQMNSLKPEATAVYYCAAPFWRDSYVQIDYDYWGQGTQVTVSS,low polyreactivity
8,QVQRVESGGGLVQAGGSLRLSCAASGRTFYLNAMGWYRQATGKERQLVAAINRGTRTYYADSVKGRFTISRDNAKNTVYLQMNSVKPEDTAVYYCAAVPRYYYSSSYTMDYWGQGTQVTVSS,high polyreactivity
9,QVQRVESGGGLVQAGGSLRLSCAASGSIFFRNVMGWYRQAPGKERELVAAISSRGGSTYYADSVKGRFTISRDIAKNTVYLQMNSLKPEDTAVYYCATSHTPTYNYWGQGPQVTVSS,high polyreactivity
10,QVQRVESGGGLVQAGGSLRLSCAASGSIFPSNTMGWYRQAPGKERELVAAISGSGTRTYYADSVKGRFTISRDNAKNTVYLQMNSLKPEDTAVYYCAADVDYWGQGTQVTVSS,low polyreactivity
11,QVQRVESGGGLVQAGGSLRLSCAASGSIFSIYAMGWYRQAPGKETELVAAIDSGTSTTYADSVKGRFTISRDNAKNTVYLEMNSLKPEDTAVYYCAAALYSDVAAVATYGYYCGQGTQVTVSS,low polyreactivity
12,QVQRVESGGGLVQAGGSLRLSCAASGSNFRVYVMGWYRQAPGKERELVARIRYRSGRTNYADSVKGRFTISRDNAKNTVYLQMNSLKPEDTAVYYCAARTPAYARTYGYWGQGTQVTVSS,high polyreactivity
13,QVQRVESGGGLVQAGGSLRLSCAASGSTFGNAMGWYRQAPGKERELVAAISSRGDRTYYADSVQGRFTISRDNAKNTVYLQMNSLKPEDTAVYYCAKDGYPNKYDYWGQGTQVTVSS,high polyreactivity
14,QVQRVESGGGLVQAGGSLRLSCAASGSTFWFNAMGWYRQAPGKERELVAAITYRGASTNYADSVKGRFTISRDNAKNTVYLQMNSLKPEDTAVYYCATRPTWRPVPDSDVSTYGYWGQGTQVTVSS,low polyreactivity
15,QVQRVESGGGLVQAGGSLRLSCAASGYIFKYYAMGWYRHSPGKVRELVAAITGGVSTNYADSVKGRFTISRDNAKNTVYLQMNSLKPEDTAVYYCAAAITPSYTGSEYDYWGQGTQVTVSS,low polyreactivity
16,QVQRVESGGGLVQAGGSLRLSCAASGYTSQVKDMGWYRQAPGKERELVAAISSTGDRTYYADSVKGRFTISRDNAKNTVYLQMNSLKPEDTAVYYCNADLTSYYEEDERNDDDYWGQGTQVTVSS,low polyreactivity

row,Sequence,polyreactivity (PSR sort gate)
1,QVQRVESGGGLVQAGGSLRLSCGASGSTFWAYVMGWYRPAPGKERELVAAMSSGGTTNYADSVKGRFTISRDNAKNTVYLQMNSLKPEDTAVYYCAAGRPGELDYWGQGTQVTVSS,low polyreactivity
2,QVQRVESGGGLVQAGGSLRLSSAASGRIFWDNAMGGYRQEPGKERELVAAISDSVVITYYADSVKGRFTITRDNAKNTVYLQMNSLKPEDTAVYYCNVTGGPYDFTRWSEFDHWGQGTQETVSS,low polyreactivity
3,QVQRVESGGGLVQAGGSLRLSSAASGRTSRYAMGWYRQAPGKERELVAAISRSGGSTHNADSVKGRFTISRDNAKNNVYLHMNSLKPEDTAVYSCNAQQGRYWSAKGYDYWGQGTQVTVSS,high polyreactivity
4,QVQRVESGGGLVQAGGSLRLTCAASGITFFVYAMGCYRQAPGKERELVATINWSGASTYYADSVKGRFTISRDNAKNSVYLQMNSLKPEDTAVYYCAKDGHYPLVYLAFDYWGQGTQVTVSS,low polyreactivity
5,QVQRVESGGGLVQAGGSLRLTCAASGLTFRTYAMGWYRQAPGKERELVAAISGTGGTTYYADSVKGRFTISRDNAKNTVYLQMNSLKPEDTAVYYCNKRWRRPYPYDYWGQGSQVTVSS,high polyreactivity
6,QVQRVESGGGLVQAGGSLRLTCAASGSIFRSYAMGWYRQAPGKERELVAAISSSSGSTYYADSVKGRFTISRDKAKYTVYLQMNSLKPEDTAVYYCAARYRIGNNGYEYWGQGTQVTVSS,low polyreactivity
7,QVQRVESGGGLVQAGGSLRLTCAASGYTSLWYGMGWSRQAPGKERDLVAAISSSGNTNYADSVKGRFTISRDNAKNTVYLQMNSLKPEDTAVYYCAVELKQVTPGLGYITLDYWGQGTQVTVSS,low polyreactivity
8,QVQRVESGGGLVQAGGSLSLSCAASGRTCGVYAMGWYRQAPGKERELGASSSRSAGSTYYADSVKGRFTISRDNAKNTVYFQMNSLKTEDTAVYYCAAVYKRGMDYWGQGTQVTVSS,high polyreactivity
9,QVQRVESGGGLVQAGRSLRLSCAASGTTFGRNAMGWYRQAPGIERELVAAINSGGGTYYADSVKGRFTISRDNAKNTVYLQMNSLKPEDTSVFYCAAARRYGNYDYWGQGTQLTVSS,low polyreactivity
10,QVQRVESGGGLVQAVGRLRLSCAASGSTFYTYTMGWYRPARGKERELVAAITWSGGSTYYADSVKGRFTISRDNAKNTVYLQMNRLKPEDTAVYYCNADQDYQGARPSGMDYWGLGTQVTVSS,low polyreactivity
11,QVQRVESGGGLVQEGGSLRLSCAASGRIFGYYAMGWYRQAPGKERELVAVITGNGSTYYADSVKGRFTISRDNAKNTVYLQRNSLNPEETAVYYCAARYVFVVRGRTVPRYYYWGQGTQVTVSS,high polyreactivity
12,QVQRVESGGGVVQAGGSLRLSCAASGSTFQLYAMGWYRQAPGKERELVAGISRDGSTYYADSVKGRFTISRDNAKNTVYLQMNSLKPEDTAVYYCAAKYYGNKRDLYYWGQGTQVTVSS,low polyreactivity
13,QVQRVESWGGLVQAGGSLRLSCAASGSTFEYNAMGWNRQAPGKEREFVAAISRTGSRTYYADSVKGRFTISRDNAKNTVYLQMNSLKPEDTAVYYCARVKSRLQVGYYYWGQGTQVTVSS,high polyreactivity
14,QVQVLESGGGLVQAGGSLRLSCAASGSIFDFYAMGWYRQAPGKDRELVAAISYRGGSTYADSVKGRFTISRDNAKNTVYLQMNSLKPEDTAVYYCAKVPDYRFEYWGQGTQVTVSS,high polyreactivity
15,QVQVVESGGGLDQAGGSLRLSCAASGSIFQVYSMGWYRQAPGQERALVAAITWAAGSTYADSVKGRFTISRDNAKNTVYLQLKSLKPDDTAVYYCAAYPYVGYVTSSAYDYWGQGTQVTVSS,low polyreactivity
16,QVQVVESGGGLFQAGGSLRLSCAASGYIFRFNAMGWSRQAPGKERELVAVITSGARTYYADSVKGRFTISRDNAKNTVYFQINSLKPEDTAFYYFNAGARRYLYDYWGQGTQVTVSS,low polyreactivity
